Source: patent US20100331233A1, “CRYSTAL OF XPA AND ERCC1 COMPLEX AND USES THEREOF” (priority 2007, published 2010)
Substitutions are numbered along the chain they refer to. In names and notes the source's numbering stands. Entries after “also recorded” stand apart in the source; their conditions may differ. Read-outs that look alike come from different tables or passages of the source.

T1: ERCC1-XPF (Homo sapiens, UniProt P07992)
T1 sequence (P07992 1-297): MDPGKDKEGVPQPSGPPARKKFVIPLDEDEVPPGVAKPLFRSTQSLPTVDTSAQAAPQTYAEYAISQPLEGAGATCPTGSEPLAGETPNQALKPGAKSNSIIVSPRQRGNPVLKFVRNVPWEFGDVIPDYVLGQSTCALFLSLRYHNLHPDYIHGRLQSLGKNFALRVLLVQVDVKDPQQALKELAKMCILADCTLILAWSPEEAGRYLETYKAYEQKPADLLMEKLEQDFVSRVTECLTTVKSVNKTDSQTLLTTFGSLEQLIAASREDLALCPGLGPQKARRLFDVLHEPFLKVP
T1 sequence (Q92889 1-916 partner): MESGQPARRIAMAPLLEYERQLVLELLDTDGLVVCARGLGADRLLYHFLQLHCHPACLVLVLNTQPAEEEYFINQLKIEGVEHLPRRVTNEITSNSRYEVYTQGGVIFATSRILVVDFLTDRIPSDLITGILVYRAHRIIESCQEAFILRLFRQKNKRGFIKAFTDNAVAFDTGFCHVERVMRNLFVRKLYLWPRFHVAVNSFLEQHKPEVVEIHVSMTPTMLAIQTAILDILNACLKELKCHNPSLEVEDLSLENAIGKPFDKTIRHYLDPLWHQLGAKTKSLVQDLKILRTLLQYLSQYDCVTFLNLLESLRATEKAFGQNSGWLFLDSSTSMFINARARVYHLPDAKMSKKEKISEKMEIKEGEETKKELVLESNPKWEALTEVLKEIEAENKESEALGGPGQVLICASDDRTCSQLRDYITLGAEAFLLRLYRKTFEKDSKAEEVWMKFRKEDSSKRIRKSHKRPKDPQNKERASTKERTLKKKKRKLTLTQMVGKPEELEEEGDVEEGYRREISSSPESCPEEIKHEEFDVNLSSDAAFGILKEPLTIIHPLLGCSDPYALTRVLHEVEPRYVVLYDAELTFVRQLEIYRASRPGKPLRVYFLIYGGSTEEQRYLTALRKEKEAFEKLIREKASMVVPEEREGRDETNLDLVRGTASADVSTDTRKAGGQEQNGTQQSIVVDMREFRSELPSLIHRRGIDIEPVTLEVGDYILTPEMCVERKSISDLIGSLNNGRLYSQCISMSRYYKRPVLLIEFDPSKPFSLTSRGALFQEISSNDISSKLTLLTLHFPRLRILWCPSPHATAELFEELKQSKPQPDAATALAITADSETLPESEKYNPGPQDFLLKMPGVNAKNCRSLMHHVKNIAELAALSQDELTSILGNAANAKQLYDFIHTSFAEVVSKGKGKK

T2: ERCC192-214 (Homo sapiens, UniProt P07992)
T2 construct: an ERCC1 central domain fragment consisting of amino acids 92-214 preceded by an N-terminal hexahistidine tag; made in house; host or cells: E. coli BL21(DE3), M9 minimal media with 15N-labeled NH4Cl
T2 sequence (P07992 92-214): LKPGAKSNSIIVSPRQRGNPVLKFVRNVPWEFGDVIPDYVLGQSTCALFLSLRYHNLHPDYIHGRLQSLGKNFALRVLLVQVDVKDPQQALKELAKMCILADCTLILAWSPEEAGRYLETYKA

T3: ERCC196-214 (central domain of ERCC1, N-terminal His6 tag) (Homo sapiens (Human), UniProt P07992 96-214)
T3 construct: not shown: N-terminal His6 tag
T3 sequence: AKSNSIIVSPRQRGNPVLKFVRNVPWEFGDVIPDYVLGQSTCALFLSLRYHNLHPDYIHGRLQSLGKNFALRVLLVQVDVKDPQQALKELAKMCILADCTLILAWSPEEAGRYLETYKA

B1: XPA67-80 peptide (peptide)
peptide: KIIDTGGGFILEEE
notes: Synthetic peptide made by solid phase methods, residues 67-80 of XPA; also called XPA peptide; synthetic XPA fragment
B2: XPA67-80^F75A mutant peptide (peptide)
peptide: KIIDTGGGAILEEE
notes: Synthetic peptide, alanine substitution at Phe75 of XPA67-80
B3: ERCC192-214 (central domain of ERCC1, N-terminal His6 tag) (other)
chain: MGSSHHHHHHSQDPLKPGAKSNSIIVSPRQRGNPVLKFVRNVPWEFGDVIPDYVLGQSTCALFLSLRYHNLHPDYIHGRLQSLGKNFALRVLLVQVDVKDPQQALKELAKMCILADCTLILAWSPEEAGRYLETYKA
notes: 15N-labeled (and perdeuterated) in some NMR experiments
B4: ERCC1-N110A/Y145A: mutant ERCC1 protein with N110A/Y145A double mutation (protein)
chain: T1 sequence (P07992 1-297) with N110A, Y145A
modifications: left off: small tags and cut ends
notes: mutant ERCC1 protein with N110A/Y145A double mutation
B5: XPA59-93 (peptide)
peptide: MANVKAAPKIIDTGGGFILEEEEEEEQKIGKVVHQ
notes: Expressed in E. coli from pET19bpps; The N-terminal (His)10 tag was cleaved with Prescission protease; 15N-labeled in some NMR experiments; also called XPA59-93 peptide; XPA59-93 fragment

Key:
[1] = biological target: XPA (endogenous, in UV20 Chinese Hamster Ovary cells); test: cell-based or functional assay
[2] = system: NER activity in HeLa cell extracts; test: In vitro NER assay: excision of a 1,3-intrastrand cisplatin adduct from plasmid in HeLa cell extract with XPA peptide; assay type: biochemical; conditions: HeLa cell free extract, plasmid with 1,3-cisplatin intrastrand crosslink, peptide 46 nM to 92 μM
ERCC1-XPF = biological target: T1, ERCC1-XPF; test: Nuclease assay: incision of stem-loop DNA substrate by purified ERCC1-XPF; assay type: biochemical; conditions: 92 μM peptide, 0.4 mM MnCl2
Description: Nuclease assay. A substrate consisting of a 12 base pair stem with a 22 nucleotide loop (5′-[…](T)22[…]; SEQ ID NO:7) was 5′ end labeled using a T4 polynucleotide kinase and [γ-^32P]-ATP. […] The final reaction volume was 15 μl.

ERCC192-214 = biological target: T2, ERCC192-214; test: 15N HSQC NMR chemical shift perturbation of 15N-labeled ERCC1; assay type: binding; conditions: 15N HSQC
Description: FIG. 3 illustrates the binding of XPA67-80 in a shallow groove of ERCC1. (A) A comparison of the two dimensional HSQC spectra for ^15N-labeled ERCC192-214 in the presence and absence of an unlabeled XPA67-80 peptide. The ^15N HSQC spectra reveal significant chemical shift changes for some ERCC1 residues (labeled) in the absence or presence of unlabeled XPA67-80. (B) Combined average chemical shift perturbations are calculated as Δχave=[((Δχ1H)^2+(Δχ15N/5)^2)/2)]^1/2 for each backbone amide of ERCC1 and shown as a histogram.
NMR experiments and determination of the structure of XPA-ERCC1 complex. All NMR data were acquired in the NMR Buffer described above. […] Backbone assignments of the free ERCC192-214 and ERCC1-XPA67-80 complex were performed using a standard set of triple-resonance experiments: HNCA/HN(CO)CA, HN(CA)CB/HN(COCA)CB and HNCO/HN(CA)CO.
Identification of the ERCC1 binding site in complex with XPA. The binding site for XPA on the surface of ERCC1 (FIG. 2B) was identified using two dimensional HSQC experiments. […] The ^15N HSQC spectrum of the ERCC1-XPA complex is consistent with a slow-exchange regime, implying a dissociation equilibrium constant below 1 μM for the complex. The XPA binding site on the ERCC1 central domain was identified using the backbone assignments for […] alone and in complex with XPA (see below). […]

[3] = system: NER activity in XPF-deficient cell extracts; test: In vitro NER assay in XPF-deficient cell extract supplemented with wild-type or mutant ERCC1-XPF; assay type: biochemical; conditions: cisplatin crosslink plasmid
From the text: Mutations in the XPA binding pocket of ERCC1 abolish NER in vitro. […] Mutant ERCC1 proteins were generated containing N110A or Y145A single mutations or a N110A/Y145A double mutation, and their activities compared to that of the wild-type ERCC1 protein.

[4] = system: UV20 Chinese Hamster Ovary cells; test: Restoration of UV resistance in ERCC1-deficient UV20 cells by lentivirally expressed ERCC1; assay type: cell-based
Description: Mutations in the XPA binding pocket of ERCC1 abolish NER in living cells. The ERCC1-N110A/Y145A double mutant protein was tested for its ability to interact with XPA and support NER activity in living cells. The double mutant and wild-type ERCC1 proteins were introduced into ERCC1-deficient UV20 Chinese Hamster Ovary cells using a lentiviral expression system. Proper expression of the ERCC1 proteins was detected using immunofluorescent detection using an antibody against the HA tag present on the lentivirally expressed ERCC1 protein. Two main parameters were compared for the wild-type and mutant proteins. Global NER activity was assessed by measuring the ability of the wild-type and double mutant ERCC1 proteins to restore UV resistance in UV-20 cells.

UV20 cells = test: Recruitment of ERCC1 and XPA to local UV damage foci (irradiation through polycarbonate filters, immunofluorescence); assay type: cell-based, Chinese Hamster; conditions: UV-irradiated UV20 cells, 5 μM pore filters
Description: The interaction of ERCC1 and XPA was investigated in living cells as follows (Volker et al., 2001, Gillet and Schärer, 2006): Cells were irradiated with UV irradiation through polycarbonate filters that are only translucent to UV light through their […]. This allows for the formation of spatially defined subnuclear region UV damage that can be detected as defined foci in fixed cells by antibodies against UV lesions in DNA as well as with antibodies against NER proteins recruited to these sites during the repair process.

[5] = biological target: T3, ERCC196-214 (central domain of ERCC1, …); test: competition titration, fluorescence anisotropy; reference is DNA binding to the ERCC1 central domain (1.5 µM)
[6] = biological target: B3; test: competition with 6FAM-labeled single-stranded 40mer DNA for ERCC1, fluorescence polarization, best fit to Eq. 9 (legend of FIG. 7)
[7] = biological target: T3, ERCC196-214 (central domain of ERCC1, …); test: competition with 6FAM-labeled single-stranded 40mer DNA for ERCC1, fluorescence anisotropy, fit to a competitive binding model (Eq. 9)
[8] = biological target: B3; test: 15N HSQC of the ERCC1-XPA complex, slow-exchange regime
[9] = biological target: B3; test: 15N HSQC of 15N-labeled ERCC1 with added mutant peptide (data not shown)
XPA59-273 = biological target: T4, XPA59-273 (Homo sapiens (Human), UniProt P23025 59-273); test: gel filtration (S100) of the complex; ERCC1 central domain construct (92-214 or 96-214) not specified
T4 construct: Cloned into pET19bpps; His10 tag cleaved with Prescission protease

XPA1-273 = biological target: T5, XPA1-273 (Homo sapiens (Human), UniProt P23025 1-273); test: as above
T5 construct: Cloned into pET19bpps; His10 tag cleaved with Prescission protease; also called full length XPA protein

[10] = biological target: B3; test: sedimentation equilibrium analytical ultracentrifugation

T5 sequence (P23025 whole entry): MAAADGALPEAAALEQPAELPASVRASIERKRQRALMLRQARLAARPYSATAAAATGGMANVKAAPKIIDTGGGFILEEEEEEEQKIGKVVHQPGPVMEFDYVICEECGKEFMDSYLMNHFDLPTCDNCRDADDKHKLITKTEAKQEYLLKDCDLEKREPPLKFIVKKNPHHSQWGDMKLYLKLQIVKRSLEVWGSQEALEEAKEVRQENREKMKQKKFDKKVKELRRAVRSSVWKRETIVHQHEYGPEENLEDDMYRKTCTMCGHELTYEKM

Molecule: ERCC1-N110A/Y145A double mutant protein with HA tag, lentivirally expressed in UV20 Chinese Hamster Ovary cells (from UniProt P07992 1-297)
- UV resistance of UV20 cells [1]: < 50%

Molecule: XPA67-80^F75A: mutant XPA67-80 peptide with alanine substitution at Phe75 (KIIDTGGGAILEEE)
- effect on NER excision of the lesion-containing oligonucleotide [2]: did not affect NER activity; also recorded: has no effect
- effect on intrinsic nuclease activity of ERCC1-XPF (ERCC1-XPF): do not affect
- binding to 15N-labeled ERCC1 by chemical shift perturbation (ERCC192-214): does not bind to ERCC1

Molecule: wild-type ERCC1: wild-type ERCC1 protein, expressed as heterodimer with XPF in insect cells or lentivirally in UV20 cells
- NER activity restored by ERCC1 (heterodimer with XPF) [3]: restored NER activity
- restoration of UV resistance ([4]; doses of 1, 2, 4 and 10 J/m^2): fully restored UV resistance
- recruitment of ERCC1 to sites of nuclear UV damage (UV20 cells): colocalized at sites containing 6-4 photoproducts

Molecule: B1
- fold higher affinity than single stranded DNA [5]: ~3 fold
- Kd [6]: 300 nM
- Kd [7]: 540 nM
- Kd [8]: < 1000 nM

Molecule: B2
- binding result [9]: no binding

Molecule: B3
- binding result (XPA59-273): binds
- binding result (XPA1-273): binds

Molecule: B4
- NER activity restored by ERCC1 (heterodimer with XPF) [3]: only marginal NER activity
- restoration of UV resistance [4]: less than 50%
- recruitment of ERCC1 to sites of nuclear UV damage (UV20 cells): not recruited to sites of active NER

Molecule: B5
- binding result [10]: binds
